Results published in patent EP4682166A1 (Guangzhou Enmai Biotechnology Co., Ltd, dated 2026).
Blank lines part the entries; values can stand above or below the binder they belong to.

Legend:
[1] = biological target: T1, human NMI (N-myc Interacting protein) (human, UniProt Q13287 1-307, limits assumed); test: indirect ELISA, human NMI coated; supernatant 1/2187
T1 construct: Immunogen and ELISA coating antigen; also called hNMI; antigen 1
T1 sequence (looked up): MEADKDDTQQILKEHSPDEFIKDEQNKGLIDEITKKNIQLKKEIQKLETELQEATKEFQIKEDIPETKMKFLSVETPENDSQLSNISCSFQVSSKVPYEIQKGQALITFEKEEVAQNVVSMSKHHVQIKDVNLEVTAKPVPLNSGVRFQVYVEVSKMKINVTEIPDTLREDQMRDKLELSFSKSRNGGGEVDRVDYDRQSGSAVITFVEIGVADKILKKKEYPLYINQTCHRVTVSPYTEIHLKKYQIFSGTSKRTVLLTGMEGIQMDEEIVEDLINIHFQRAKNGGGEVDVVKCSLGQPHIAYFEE

[2] = biological target: T1, human NMI (N-myc Interacting protein); test: indirect ELISA, human NMI coated; supernatant 1/3
[3] = biological target: T1, human NMI (N-myc Interacting protein); test: I-ELISA, hNMI coated 1 ug/mL; antibody 39.0625 ng/mL
[4] = biological target: T1, human NMI (N-myc Interacting protein); test: I-ELISA, hNMI coated 1 ug/mL; antibody 312.5 ng/mL
[5] = biological target: T1, human NMI (N-myc Interacting protein); test: I-ELISA, hNMI coated 1 ug/mL; antibody 1250 ng/mL
[6] = biological target: T1, human NMI (N-myc Interacting protein); test: indirect ELISA, human NMI coated; supernatant 1/59049
[7] = biological target: T1, human NMI (N-myc Interacting protein); test: sandwich ELISA; coating antibody 2.5 ug/mL, detection 94C4-biotin 0.5 ug/mL
[8] = biological target: T1, human NMI (N-myc Interacting protein); test: indirect ELISA, human NMI coated; supernatant 1/27
[9] = biological target: T1, human NMI (N-myc Interacting protein); test: I-ELISA, hNMI coated; upper end of the group's range, tied to 98G10 by Table 17
[10] = biological target: T1, human NMI (N-myc Interacting protein); test: I-ELISA, hNMI coated 1 ug/mL; antibody 1.2207031 ng/mL
[11] = biological target: T1, human NMI (N-myc Interacting protein); test: indirect ELISA, human NMI coated (repeats Table 1)
[12] = biological target: T1, human NMI (N-myc Interacting protein); test: indirect ELISA, human NMI coated; supernatant 1/19683
[13] = biological target: T1, human NMI (N-myc Interacting protein); test: indirect ELISA, human NMI coated; supernatant undiluted
[14] = biological target: T1, human NMI (N-myc Interacting protein); test: indirect ELISA, human NMI coated; supernatant 1/81
[15] = biological target: T1, human NMI (N-myc Interacting protein); test: I-ELISA, hNMI coated 1 ug/mL; antibody 78.125 ng/mL
[16] = biological target: T1, human NMI (N-myc Interacting protein); test: indirect ELISA, human NMI coated; supernatant dilution series
[17] = biological target: T1, human NMI (N-myc Interacting protein); test: I-ELISA, hNMI coated 1 ug/mL; antibody 19.53125 ng/mL
[18] = biological target: T1, human NMI (N-myc Interacting protein); test: indirect ELISA, human NMI coated; supernatant 1/729
[19] = biological target: T1, human NMI (N-myc Interacting protein); test: I-ELISA, hNMI coated 1 ug/mL; antibody 156.25 ng/mL
[20] = biological target: T1, human NMI (N-myc Interacting protein); test: indirect ELISA, human NMI coated; supernatant 1/243
[21] = biological target: T1, human NMI (N-myc Interacting protein); test: I-ELISA, hNMI coated 1 ug/mL; antibody 625 ng/mL
[22] = biological target: T1, human NMI (N-myc Interacting protein); test: I-ELISA, hNMI coated 1 ug/mL; antibody 2500 ng/mL
[23] = biological target: T1, human NMI (N-myc Interacting protein); test: I-ELISA, hNMI coated 1 ug/mL; antibody 4.8828125 ng/mL
[24] = biological target: T1, human NMI (N-myc Interacting protein); test: indirect ELISA, human NMI coated; supernatant 1/6561
[25] = biological target: T1, human NMI (N-myc Interacting protein); test: I-ELISA, hNMI coated 1 ug/mL; antibody 2.4414063 ng/mL
[26] = biological target: T1, human NMI (N-myc Interacting protein); test: indirect ELISA, human NMI coated; supernatant 1/9
[27] = biological target: T1, human NMI (N-myc Interacting protein); test: I-ELISA, hNMI coated 1 ug/mL; antibody 9.765625 ng/mL
[28] = biological target: T1, human NMI (N-myc Interacting protein); test: I-ELISA, hNMI coated; lower end of the group's range, tied to 94C4 by Table 17

ELISA OD [1]: 1.72 OD
ELISA OD [2]: 3.45 OD
OD450 [3]: 0.67 OD450
OD450 [4]: 1.97 OD450
OD450 [5]: 2.15 OD450
ELISA OD [6]: 0.237 OD
detection limit (sensitivity) [7]: 60 pg/mL
ELISA OD [8]: 3.32 OD
EC50 [9]: 70 ng/mL
OD450 [10]: 0.065 OD450
EC50 [11]: 1.22 ng/mL
ELISA OD [12]: 0.528 OD
ELISA OD [13]: 3.45 OD
ELISA OD [14]: 3.29 OD
OD450 [15]: 1.18 OD450
EC50 [16]: 1.22 ng/mL
OD450 [17]: 0.41 OD450
ELISA OD [18]: 2.48 OD
OD450 [19]: 1.71 OD450
ELISA OD [20]: 2.97 OD
OD450 [21]: 2.08 OD450
OD450 [22]: 2.17 OD450
OD450 [23]: 0.115 OD450
ELISA OD [24]: 1.07 OD
OD450 [25]: 0.081 OD450
ELISA OD [26]: 3.39 OD
OD450 [27]: 0.217 OD450
B1: 98G10 (antibody, V domains shown)
VH: QEQLEESGGDLVKPEGSLTLTCTASGFSFSASYWICWVRQAPGKGLEWIACIYGGSSGSAYYASWAKGRFTISKTSSTTVTLQMTSLTAADTATYFCARAGYYNYGSAGDIYPSSFKLWGPGTLVTVSS
VL: DIVMTQTPASVEAAVGGTVTINCQASQSISTALAWYQQKPGQPPKLLIYTASKVASGVPSRFSGSGSGTQFTLTISDLECADAATYYCQNYYYSSSSITFGGGTEVVVK
notes: Rabbit monoclonal antibody; also called 98G10-1; 98G10-1-biotin (biotin-labelled form)

ELISA OD [1]: 2.48 OD
ELISA OD [2]: 3.5 OD
OD450 [3]: 1.22 OD450
OD450 [4]: 2.1 OD450
OD450 [5]: 2.19 OD450
ELISA OD [6]: 0.585 OD
ELISA OD [8]: 3.47 OD
OD450 [10]: 0.092 OD450
EC50 [11]: 0.189 ng/mL
ELISA OD [12]: 1.28 OD
EC50 [28]: 30 ng/mL
ELISA OD [13]: 3.46 OD
ELISA OD [14]: 3.43 OD
OD450 [15]: 1.64 OD450
EC50 [16]: 0.189 ng/mL
OD450 [17]: 0.833 OD450
ELISA OD [18]: 2.98 OD
OD450 [19]: 1.93 OD450
ELISA OD [20]: 3.29 OD
OD450 [21]: 2.19 OD450
OD450 [22]: 2.17 OD450
OD450 [23]: 0.262 OD450
ELISA OD [24]: 2.15 OD
OD450 [25]: 0.142 OD450
ELISA OD [26]: 3.58 OD
OD450 [27]: 0.482 OD450
B2: 94C4 (antibody, V domains shown)
VH: QSLEESGGGLVQPEGSLTLTCKASGFDFSSNAMCWVRQAPGKGLEWIACISSASSGSSGSTYYASWAKGRFTISKTSSTTVTLQMTSLTAADMATYFCARDGYDLWGPGTLVTVSS
VL: QVLTQTPSSVSAAVGGTVTISCQSSPSVYNNYLSWFQQKPGQSPKLLIYRVSTLASGVPSRFSGSGSGTQFTLTISGVQCDDAATYYCAGGYDSASDTYVFGGGTEVVVK
notes: Rabbit monoclonal antibody; also called 94C4-1; 94C4-1-biotin (biotin-labelled form)
